This is an account of results in paper PMC11277095 (International Journal of Molecular Sciences, 2024).

The data set concerns the molecule itself. Kind of data set: native gel or EMSA; 10 µg purified protein mixed with hypotonic buffer, hyperosmotic resealing solution (10% v/v Pigpa) or loading buffer; Tris/glycine buffer pH 8.3, 100 V; Coomassie staining.

B1: Human ornithine aminotransferase variant R217A (OAT-R217A) (enzyme, UniProt P04181 26-439, looked up)
chain: TSVATKKTVQGPPTSDDIFEREYKYGAHNYHPLPVALERGKGIYLWDVEGRKYFDFLSSYSAVNQGHCHPKIVNALKSQVDKLTLTSRAFYNNVLGEYEEYITKLFNYHKVLPMNTGVEAGETACKLARKWGYTVKGIQKYKAKIVFAAGNFWGRTLSAISSSTDPTSYDGFGPFMPGFDIIPYNDLPALEAALQDPNVAAFMVEPIQGEAGVVVPDPGYLMGVRELCTRHQVLFIADEIQTGLARTGRWLAVDYENVRPDIVLLGKALSGGLYPVSAVLCDDDIMLTIKPGEHGSTYGGNPLGCRVAIAALEVLEEENLAENADKLGIILRNELMKLPSDVVTAVRGKGLLNAIVIKETKDWDAWKVCLRLRDNGLLAKPTHGDIIRFAPPLVIKEDELRESIEIINKTILSF
modifications: PLP bound to Lys292 through a Schiff base linkage
notes: Human ornithine aminotransferase, mitochondrial; construct printed as 'pET43a Δ26-439 OAT-R217A', the mature form with Arg217 changed to alanine; also called dimeric hOAT; source: E. coli BL21, purified (DEAE HiPrep FF, Sephacryl S-100)
Regarding B1, the binding result is “binds”.
